# Test results published in patent publication US20130011427A1 (priority 2009, published 2013).
# Target: HLA-A2.1 (HHD monochain) (human; murine)
# Experiment: cell-based or functional assay
row,Substance,IFN-γ ELISpot (SFC/10^6)
1,WNV E 68-85 peptide,372 SFC/10^6
2,WNV NS3 265-282 peptide,150 SFC/10^6
3,WNV NS3 161-177 peptide,56 SFC/10^6
4,WNV NS3 530-547 peptide,127 SFC/10^6
5,WNV NS3 138-155 peptide,159 SFC/10^6
6,WNV NS3 413-430 peptide,130 SFC/10^6
7,WNV NS1 236-251 peptide,78 SFC/10^6
8,WNV NS3 70-87 peptide,174 SFC/10^6
9,WNV NS3 206-223 peptide,108 SFC/10^6
10,WNV NS3 78-95 peptide,150 SFC/10^6
11,WNV NS3 91-107 peptide,156 SFC/10^6
12,WNV NS1 228-245 peptide,84 SFC/10^6
13,WNV NS3 221-237 peptide,26 SFC/10^6
14,WNV E 450-467 peptide,205 SFC/10^6
15,WNV NS2b 115-131 peptide,108 SFC/10^6
16,WNV NS3 515-532 peptide,140 SFC/10^6

row,Substance,IFN-γ ELISpot (SFC/10^6)
1,WNV NS3 249-266 peptide,79 SFC/10^6
2,WNV NS3 317-333 peptide,151 SFC/10^6
3,WNV NS3 304-321 peptide,94 SFC/10^6
4,WNV NS3 324-340 peptide,117 SFC/10^6
5,WNV NS3 183-200 peptide,62 SFC/10^6
6,WNV NS3 146-162 peptide,58 SFC/10^6
7,WNV NS3 523-539 peptide,57 SFC/10^6
8,WNV NS3 98-115 peptide,145 SFC/10^6
9,WNV NS3 343-360 peptide,55 SFC/10^6
10,WNV NS3 359-376 peptide,75 SFC/10^6
11,WNV NS3 85-100 peptide,72 SFC/10^6
12,WNV NS3 336-352 peptide,167 SFC/10^6
13,WNV NS5 448-463 peptide,26 SFC/10^6
14,WNV NS2a 160-177 peptide,63 SFC/10^6
15,WNV NS3 241-258 peptide,127 SFC/10^6

# Target: HLA-DR2 (chimeric HLA-DRA1*0101/DRB1*1501 with I-E domains) (human; murine) (UniProt Q8BHN5)
# Experiment: cell-based or functional assay
# Sequence of UniProt Q8BHN5 (Q8BHN5 whole entry, stated change not applied): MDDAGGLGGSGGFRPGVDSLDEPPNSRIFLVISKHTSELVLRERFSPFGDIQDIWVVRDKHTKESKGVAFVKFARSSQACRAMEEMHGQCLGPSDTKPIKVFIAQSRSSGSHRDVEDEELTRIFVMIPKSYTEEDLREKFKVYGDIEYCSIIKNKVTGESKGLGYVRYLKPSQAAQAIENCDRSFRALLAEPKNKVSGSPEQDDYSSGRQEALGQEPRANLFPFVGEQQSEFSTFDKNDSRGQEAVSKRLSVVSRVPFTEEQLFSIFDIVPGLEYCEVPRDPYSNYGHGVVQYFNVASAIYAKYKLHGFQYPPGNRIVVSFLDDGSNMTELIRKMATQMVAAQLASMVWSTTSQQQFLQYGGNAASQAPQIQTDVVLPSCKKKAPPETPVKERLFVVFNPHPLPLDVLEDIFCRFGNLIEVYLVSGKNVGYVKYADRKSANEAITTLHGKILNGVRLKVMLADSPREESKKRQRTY
row,Substance,IFN-γ ELISpot (SFC/10^6)
1,WNV NS3 265-282 peptide,169 SFC/10^6
2,WNV NS3 161-177 peptide,72 SFC/10^6
3,WNV NS1 161-178 peptide,134 SFC/10^6
4,WNV prM 144-161 peptide,84 SFC/10^6
5,WNV NS2a 136-154 peptide,98 SFC/10^6
6,WNV NS3 455-469 peptide,200 SFC/10^6
7,WNV NS5 181-198 peptide,122 SFC/10^6
8,WNV NS3 460-475 peptide,123 SFC/10^6
9,WNV NS4b 233-250 peptide,62 SFC/10^6
10,WNV NS3 22-38 peptide,155 SFC/10^6
11,WNV E 458-474 peptide,51 SFC/10^6
12,WNV NS3 206-223 peptide,323 SFC/10^6
13,WNV NS5 598-615 peptide,252 SFC/10^6
14,WNV E 450-467 peptide,261 SFC/10^6
15,WNV NS2a 128-145 peptide,384 SFC/10^6
16,WNV NS3 515-532 peptide,95 SFC/10^6

row,Substance,IFN-γ ELISpot (SFC/10^6)
1,WNV NS2a 6-23 peptide,563 SFC/10^6
2,WNV NS3 249-266 peptide,139 SFC/10^6
3,WNV NS5 212-229 peptide,168 SFC/10^6
4,WNV NS4b 30-47 peptide,89 SFC/10^6
5,WNV NS3 199-216 peptide,52 SFC/10^6
6,WNV NS3 214-230 peptide,146 SFC/10^6
7,WNV NS2a 52-66 peptide,516 SFC/10^6
8,WNV NS3 183-200 peptide,55 SFC/10^6
9,WNV prM 114-130 peptide,101 SFC/10^6
10,WNV NS3 523-539 peptide,160 SFC/10^6
11,WNV NS3 176-192 peptide,59 SFC/10^6
12,WNV NS2b 59-75 peptide,59 SFC/10^6
13,WNV NS2b 39-56 peptide,47 SFC/10^6
14,WNV NS3 588-605 peptide,42 SFC/10^6
15,WNV NS2a 80-97 peptide,289 SFC/10^6
16,WNV NS2a 211-229 peptide,74 SFC/10^6

# Test system: HLA-A2.1 (HLA-A*0201) Tg mice, CD4-depleted splenocytes
# Experiment: not given
# Type: cell-based, mouse
row,Substance,"T cell activation of HLA transgenic mice (SFC/10^6) IFN-γ ELISpot, A2"
1,THTLWGDGILESDLIIPV [NS1 228-245],84 ± 47 SFC/10^6
2,GQDEVQMIVVEPGKNVK [NS3 91-107],156 ± 11 SFC/10^6
3,GSVKEDRLCYGGPWKLQH [NS3 70-87],174 ± 13 SFC/10^6
4,LQHKWNGQDEVQMIVV [NS3 85-100],72 ± 9 SFC/10^6
5,ERKNFLELLRTADLPVWL [NS3 530-547],127 ± 10 SFC/10^6
6,LQTEIPDRAWNSGYEWI [NS3 336-352],167 ± 35 SFC/10^6
7,CYGGPWKLQHKWNGQDEV [NS3 78-95],150 ± 17 SFC/10^6
8,IRYQTSAVPREHNGNEIV [NS3 241-258],127 ± 18 SFC/10^6

# Test system: HLA-DR2 (DRB1*1501) Tg mice, CD8-depleted splenocytes
# Experiment: not given
# Type: cell-based, mouse
row,Substance,"T cell activation of HLA transgenic mice (SFC/10^6) IFN-γ ELISpot, DR2"
1,GRIGRNPSQVGDEYCY [NS3 460-475],123 ± 4 SFC/10^6
2,MATFKIQPVFMVASFLKA [NS2a 80-97],289 ± 83 SFC/10^6
3,REDQRGSGQVVTYALNTF [NS5 598-615],252 ± 41 SFC/10^6
4,GLFNPMILAAGLIACDPNR [NS2a 211-229],74 ± 23 SFC/10^6
5,IDPFQLGLLVVFLATQEV [NS2a 6-23],563 ± 41 SFC/10^6
6,ERKILRPRWIDARVYSDH [NS3 588-605],42 ± 4 SFC/10^6
7,LAVAWMILRAITFTTTSNV [NS2a 136-154],98 ± 22 SFC/10^6
8,GLTSTRMFLKVRESNTTE [NS1 161-178],134 ± 8 SFC/10^6
9,MFAAFVISGKSTDMWIER [NS2b 39-56],47 ± 18 SFC/10^6
10,NRRLRTAVLAPTRVVAA [NS3 214-230],146 ± 29 SFC/10^6
11,TDVLRYVILVGAAFA [NS2a 52-66],516 ± 9 SFC/10^6
12,SRNSTHEMYWVSRASGNV [NS5 212-229],168 ± 13 SFC/10^6
13,STKATRYLVKTESWILR [prM 114-130],101 ± 33 SFC/10^6
14,GKTRRILPQIIKEAINRR [NS3 199-216],52 ± 6 SFC/10^6
15,VKVLCPYMPKVIEKMELL [NS5 181-198],122 ± 40 SFC/10^6
16,AAQRRGRIGRNPSQV [NS3 455-469],200 ± 27 SFC/10^6
17,GEFLLDLRPATAWSLYAV [NS4b 30-47],89 ± 21 SFC/10^6
18,PAGFEPEMLRKKQITVL [NS3 176-192],59 ± 8 SFC/10^6
19,DISWESDAEITGSSERV [NS2b 59-75],59 ± 12 SFC/10^6
20,GWLSCLSITWTLIKNMEK [NS4b 233-250],62 ± 6 SFC/10^6
21,EIPDVLNSLAVAWMILRA [NS2a 128-145],384 ± 125 SFC/10^6
22,VYRIMTRGLLGSYQAGA [NS3 22-38],155 ± 22 SFC/10^6
23,SWITQGLLGALLLWMGI [E 458-474],51 ± 4 SFC/10^6
